Assay: soluble on expression in E. coli; label from the status in PepcDB or PDB records

Soluble on expression in E. coli, soluble:
MSQDNSEELIKVEKVEAFFYPIHGIPTMVLYLEDGREFKMFQIPPEIVIALNRLQEKRDYEELLRGDKRENIYDVLAFSSEIKDQLSKIINRVIINDVNEEYGVYIATVEFKFDGVIIEKQLIPSHAVFLAIVSNRPIYVKKNLVDEQEKQERKSGEDV, MRLEKFIHLLGERGFDGALISPGTNLYYLTGLRLHEVGERLAILAVSAEGDYRFLAPSLYENVVNNFPATFWHDGENPYAKLREILEELGISKGRILIEDTMRADWLIGIMKLGKFTFQPLSSLIKELRMIKDKEEVKMMEHASRIADKVFEEILTWDLIGMKERELALKIELLIRELSDGIAFEPIVASGENAANPHHEPGERKIRKGDIIILDYGARWKGYCSDITRTIGLGELDERLVKIYEVVKDAQESAFKAVREGIKAKDVDSRAREVISKAGYGEYFIHRTGHGLGLDVHEEPYIGPDGEVILKNGMTFTIEPGIYVPGLGGVRIEDDIVVDEGKGRRLTKAERELIIL, MSLQIKVSQFGLNLAHAWATAASSAKKSRIVTFVKLTSSDGAFGFGESAPSSRYGETLETVTAFLAKIDPKQLSFDDVPGSMAYLDKLSSGDFAAKAAVNIALWDGAGKKARKPIYDLLGLGFTENKHITSYTIGIDAPEIIRQKVLEAEQYPVLKLKVGDKNDRETMAILRSIAPAKTVRIDGNEGWKTKEEALKNIEWFAQDKNIEFVEQPMPADSNPKDLAWLKERSPLPLYADESFFAVADVSLCVDCFHGVNVKLVKTAGISGAYEALQAAKKAGLKRMIGCMVESSVLIGAGAHLAELADHLDIDTNLLITNDPFQGTTAEKGIISFAKASEPCGLRVKATPSFVMEGHHHHHH, MSLTALMVGTGRGAKMGILIKNGEVLEAVNDVQTVVFDKTGTLTVGKPQVTDIIGDSKQVLRIAASLEDSSEHPLAAAILAKAKADNISTLPVENFTAIEGKGVAATISGQQGVVGNQKLLGDLTFNKQLQQQETRLQNEAKTVVFVGLDDRIIGLIAIQDAPKPTSKEAIAALRARGLRTVMLTGDNQRVAQAVAQQIGIDEVIADVLPGDKAAQIKQFQHDEGHHHHHH

Soluble on expression in E. coli, not soluble:
MGSDKIHHHHHHMAKLMNNKLKKEIIDFAHSIGIDSIGFTTADPFDELKQKLEEYHAKGYASGFEESNISLRTEPKLSLPSARSIIAIAVGYPNKLKGAPKSVKGDRRGMFARASWGQDYHSIMRKRLDKLADFIKEKVPDVEIQSMVDTGVLSDRAVAERAGLGFTGRNGFVISPELGTWSYLGEMLVSIPFEPDDPLLDSCGDCTICVDRCPTGALVGNGQLNSQKCISFLTQTKGYLQDEYRYKIGNRLYGCDTCQQVCPKNRGINTQHDDIVLEPEILKPRLVPLLQMSNKKFKSTYGHLAGAWRGKKPIQRNAIIALAHFKEESAIPELKEVALNDPRPMIRGTAYWAIGQILEDDAISFIDEHYENEIEEVQLEMKKGLQMRREQK, MGSDKIHHHHHHMSVTSTTSQNSLFDVIVIGSGIGGLVTATQLAAKGAKVLVLESYIIPGGSAGYFERQGYRFDVGASMIFGLGNRGTTNLLTRALQAVNSSVEAIADPVQIHYHLPSNLNLKVDRVYDKFLQNLAAYFPHETKGIRRFYDECWQVFKCLNRMDLLSLEEPRYLLRTFLQHPLACLGLLKYLPQNVGDIARRYIRDPELLKFIDIECYCWSVVPAAMTPMINAGMVFSDRHYGGVNYPKGGVGQIAQKLAEGLEKVGGEIRYQAKVAKIITEKYRAVGVQLTNGEIYRSKRIVSNATRWDTFEKLLPVDKMPSNEKDWQHSYKKSPSFLSLHMGVKESVLPQGTECHHIILEDWQNMTQAEGTLFVSIPTLLDPELAPEGCHIIHAFTPHWINDWQGFSVSDYEAKKEETAWRIIDRLEKIFPGLDAGLDYLEVGTPRTHRRFLGREDGTYGPIPRRKLRGLLSMPFNRTAIKGLYCVGDSTFPGQGLNAVAFSGFACAHRIAVDLGL, MGSDKIHHHHHHMTTLKARLRQGQAITMIGNSLPDTYAAEMVASAGFDAVMIDLQHSAIGLHEVNDLARAVRAQGCAPVVRVAANDPAAITKVLDGGVDAVVAPMINSAEACRQFISACYYAPLGDRSFGPYLGQVIQRQSIQDYYAQTRDRLLPIAMIENEEGVRQAEQIMRTEGLGAIYVGASDLSIAMGMDCVPDYRNARLLDCIKGLIDLGERCGIPVGAFAPTLEDSLMLQSLGSRILWVGSDQGFIKAGCAARAQQYHAESSPRR, MSLGCDSILSIDIGTTRIKAGLVDCNTLEITGRGSVSTPVSYPRKGWSEQDPEELWQAIVRASSAALEGFEASRVSGVIFSTYLAGVVLLDRDNYELTPIITWLDERAHGLPRELFSGVLKVSGYNLLHLVDLLRLTGGAPSKTGKDPLSKMVWLRENKPDLFTKAHTIGTLKTWVLAKTAEARLVSPDDAHLTWLADTRGGRAVWSPRLARRYGIPLEKLPGIAGPTDVAGGLVSSAARDLGLPQGIPVIVGAGDIASSAVGSGALAAGEYHIYVGTSSWIGVHSTRRLLDVRHYIGSLLSAKPGEYLVIGEQEIAGGMIDWILDVTGMDYRAVEDIHSIPPGSEGLIATPWLYGERTPIDDPHAKGVLVGLTLRHTKKHLVRAAVEGVALNIAWAMEHMTRLAGKPKLVRGVGGGFRLRTLAKVIASALNATIETVSQPEMAGVRGAGALAAAALKGSSIESEAGKIPVSWRAEADSNASKAYKDLLQIYQEIYSRLKSVFRRLSEGHHHHHH, MTDTNSQWIEMNLQRQRKMLEDKQKQKRHQSAGSVRTTSTAMSMNSMKDYPTFDNSLPFSISDNSSVSVSMNTPLIPTQDPIAQPRMQSMPRQQPQQVQESLISIGDYPDNDINAKLSKVNLTSCVVSDDEDEDKRSYADSPWNTDVVADRIPSEVLPDYNFIKNNLAKFVEDPAVEHCLYKCSITRQKSGVDKGMFPTYFLHLEEFDTDKRQKIFLLAARKRKKSTTANYLLSTDPTNLSREGEGYCAKVRSNALGTQFTVYDSGQNPKKTTNHAAIRQELAAVIYETNVLGFKGPRKMTIVMPGIEPPTENRPAVRCPVRPIQDKHTLLERYRLNDLDSLKILSNKSPQWNDETQSYVLNFHGRVTQASVKNFQIIHQSSPEYIVMQFGRISDDEFTMDFRYPLSAVQAFGIAMTSFHGKLACE, MMKKYLISLAKDQQRREQFFTQADTADFQVFDAVNTMQQEWDSLAVKYDITQFAQRYQRSVTKGEIGCTLSHLGVYQWIVADPQIGDNDYCLVCEDDALFNQDVQSSLTQLLSQNVHADIVLVGQSKIFGFDDAMLEIEYPTTFAPQMVAIGNSIYRYAYPYKNYYAGTVAYLIKKSTARKLVSITDLPFWLADDFILFEQQFGLDIMVVRPLMAIENPALCSNLETARASTQQALSKKLLKYPFKKWLAIQRNIGLKNDQCGNLEHHHHHH, MTNRLILFDFDETYYKHRTNQADIPYLKEMKSLLQNITAKNNVITAILTGSTIESVLQKMSKVNMSYKPQHIFSDLSSKMFTWNNCEYIESDEYKNEVLIEPFLLEDILDILKHVSSKHKVEFIPQRIFRENETLYNFYFYSSGDTHLDKTILEDLSQYSKTRDYTMTFNRCNPLAGDPENAYDINFTPKNAGKLYATKILMNKYGVPKELIIGFGDSGNDEAFLSYLDHAMIMSNSQDEEMKSKFKNTKYPYYKGIYTHVREFIEYENV, MIQERKNLVTFGDQLVEAGRRLGRLCVGIDPHPSLLKQWGCDDGIAGLQRFTEICVEAFSGNVALVKPQVAFYEAWGAAGYQILESAISELRQAGTLVLSDAKRGDIGSTMAGYAQAWLAEESSLSSDAVTVSPFLGYGSLSPVLEVAASTNKGVFVLAATSNPEARSLQDRIGEDGLSISQLMVDSVALSNREHKENNHYGNVGVVIGATLAHPPQLERLNGPILLPGVGAQGATPADVARLTQGVQELAFANVSRGILKAGPSASALSTAISKFVEEFTN, MKFTEGKVKVVANDVKNLTQALEGYIQKAFFEGKDICASGGLVLKTTNKLAQKLSELKEILPQVKVISDEVKAKAEEIIKKAEETLQKGLEIKKRVKEFEAATNVYKKNPSEENKKRVETALNNLKYPEGAKLTLEDYVKNCNPYKKYLQKRVEQKA, MAVQRYFVSGQAQQGGIVAISGDDAHHIARVMRMKPGDGIICVFPDGRTAVCEIEQIANEHVQARIVQWKEERSELPVRIYIAQGLPKGEKWELVIQKGTELGAAGFLPFEAARSVVKWDAKKAEKKVERWKKIAKEAAEQAERTVVPDVRAPLSFVELLAFGQTVDVRLFAYEKEARNARHAALPALLSRLRPGGALLAVFGPEGGFSPEEAEQLRQHGFSPCSLGPRILRTETAPLYLLSAASYEWELRAGGEAARGR, MGSDKIHHHHHHMKRNESKYKQVVNHVIDGINNGSYKKGDWILSINEFRKNYNLSRDTVFAGLSELKSKGIIDSTPGVGYYIATTRIAQKLNIFLLFNEFNEFKEDLYNSFISSIRKTANVDLYFHNYNRKVFETLINEANYKYTTYILMPGKFTNIAPLLESLSGRVFLLDHFHPELAGKYSSVAQNFEKDTYEALVYGLPHLKKYDHIIMVQKEEKEPIERYNGLCAFCEEYHFTHEYTDSVRNREIRQGETFMVVNDRDLVDLLKQAQLQNFAPGKDFGIISYNDTPLKEILAGGITTLSTDFKQMGQTMASLITQKEIKTIENPWKLDIRNSL, WRRLLESLQQGRRSEERNRLVVERTNQAILLLEPGAGTIIDANPATCVLLGFSRNELTGADIHALLSGPVQEVDSELERCLRETRELSLCHRDGAELVVEAMATQVPHGDDQALCLMFHDIT, MLTSKPEIKNSELNSYLVGGAVRDKLLNRPIKDEDYLVVGASIEQMIKLGYHQVGKDFPVFLHPKTKAEYALARTERKQGQGYTGFSCYFAPDVTIEQDLLRRDLTVNAMAMDHNGKIIDPYNGQNDLNDRILRHVSDAFIEDPLRVLRVARFAARYHKYGFTIADETLTLMQEISASGELKCLTPERVWQEMQLSLADGGANSDTNSGNPEVFFEVLQQCNALEELWPELAVLWGIPNPALWHPEICSGIHTMMVLQQAVLLTQAIPDEHSDHRTAVRFAALCHDLGKGVTSDKLWPSHKGHETSGLPLVERICGQLKVPSHYKQLALKVCEFHLHCHKAFELKASTLLKMFNQLDIWRKPEEFDLFLMACKSDFLGRLGFENRAYPQEQYLQAAVKAARKVTAQPFLEKGLQGLAIKEAMAKERLSVIANIKADFAHLNPTPQ, MNTINRNYYPVSGIPAQDAPAQTDQLPPQGQGIKPGHNSNLIDFGLTQQANGPHSSLNTLGSRVQPTDTNTSSNMPGGNGEQVLNKLVQAIRNILNNLLSLLEGNLHNGSGPAQPQRDQTPTLAQSPSSASPSSSPPSTPQGNAEKPFVVQNDHPSEKPVSLQKNTEPTSAAPSQTAPRTTERSSATPDKTPARPDAVNPAVVHDLALPKTSTDTTAKPDNTVNAAKTATPAAHGQGADMSGIMGFAKEANTTGGNGGEVVTVNTVADLKKYMEDDKARTVKLGANLSADSKVTINFGANKTLLGTDKGNSLHNIYLASGKTASNDIFQNLNFDHDSRYRENGDMQMFISSGQKYWIDHNTYSGTKDQNAKGLDKLLYVGGTADNVSLTNSKFQNNEYGVILGQPDDSAQAKAEYKGYPRMTIANNVFSNLDVRAPGLMRHGQFDVLNNSIDNFHLGFTATGDATILSQANYFAKGVDVSDKASNSGVLDDYGDAHFKDIGSNVSFTQKSAVTAWTPSYQRDIKTAEAARAYDQANAGAKTVS, MGSDKIHHHHHHMFQLHHKLAADSFLVGDFPLSTCRLINDCQFPWLILVPRVSGIKELYELSEADQTQFLRESSWLSSQLAKTFQADKMNVAALGNQVPQLHFHHIVRYQNDMQWPNPVWGIPAVPYSKEVLAQMQQTLMMALRGHHQMPFDWQM
